The target of this test is T1, recombinant mouse IL-2Ra (Sino Biological) (mouse, UniProt P01590 22-236).
T1 sequence (looked up): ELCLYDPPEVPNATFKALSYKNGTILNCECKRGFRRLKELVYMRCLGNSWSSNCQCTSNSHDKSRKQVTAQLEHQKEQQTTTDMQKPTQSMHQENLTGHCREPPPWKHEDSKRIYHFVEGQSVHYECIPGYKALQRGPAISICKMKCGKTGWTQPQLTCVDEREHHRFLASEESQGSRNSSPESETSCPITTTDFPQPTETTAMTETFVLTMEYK
Kind of test: ELISA.

B1: mouse IL-2 (recombinant, unmodified) (ligand, UniProt P04351 21-169, looked up)
chain: APTSSSTSSSTAEAQQQQQQQQQQQQHLEQLLMDLQELLSRMENYRNLKLPRMLTFKFYLPKQATELKDLQCLEDELGPLRHVLDLTQSKSFQLEDAENFISNIRVTVVKLKGSDNTFECQFDDESATVVDFLRRWIAFCQSIISTSPQ
Turning to B1, the binding result is “binds”.
